Assay [1] has as its target T1, soluble human FcRH5 protein fragment (human) (UniProt Q96RD9).
T1 sequence: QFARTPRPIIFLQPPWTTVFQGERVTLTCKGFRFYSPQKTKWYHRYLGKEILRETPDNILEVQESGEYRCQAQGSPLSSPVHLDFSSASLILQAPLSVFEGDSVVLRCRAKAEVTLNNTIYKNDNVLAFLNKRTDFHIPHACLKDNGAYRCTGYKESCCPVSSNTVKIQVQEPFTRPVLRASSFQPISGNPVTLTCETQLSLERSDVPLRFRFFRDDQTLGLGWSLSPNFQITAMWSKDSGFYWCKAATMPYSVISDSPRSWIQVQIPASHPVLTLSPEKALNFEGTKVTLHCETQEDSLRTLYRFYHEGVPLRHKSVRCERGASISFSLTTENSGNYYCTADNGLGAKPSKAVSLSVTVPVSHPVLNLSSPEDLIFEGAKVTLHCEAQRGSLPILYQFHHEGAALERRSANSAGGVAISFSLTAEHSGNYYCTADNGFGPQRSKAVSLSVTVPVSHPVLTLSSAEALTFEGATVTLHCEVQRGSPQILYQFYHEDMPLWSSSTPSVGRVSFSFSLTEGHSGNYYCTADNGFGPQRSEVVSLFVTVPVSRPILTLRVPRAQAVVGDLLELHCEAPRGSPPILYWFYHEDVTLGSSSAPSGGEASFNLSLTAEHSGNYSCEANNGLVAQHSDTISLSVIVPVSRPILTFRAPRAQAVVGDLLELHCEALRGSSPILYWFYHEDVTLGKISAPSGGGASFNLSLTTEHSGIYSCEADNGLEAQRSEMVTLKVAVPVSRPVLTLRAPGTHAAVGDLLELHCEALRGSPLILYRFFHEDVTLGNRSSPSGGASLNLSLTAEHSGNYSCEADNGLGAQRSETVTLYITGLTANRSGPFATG
Kind of assay: SPR screening, human IgG capture.

Assay [2] deals with T2, soluble cynomolgus FcRH5 protein fragment (cynomolgus monkey).
T2 sequence: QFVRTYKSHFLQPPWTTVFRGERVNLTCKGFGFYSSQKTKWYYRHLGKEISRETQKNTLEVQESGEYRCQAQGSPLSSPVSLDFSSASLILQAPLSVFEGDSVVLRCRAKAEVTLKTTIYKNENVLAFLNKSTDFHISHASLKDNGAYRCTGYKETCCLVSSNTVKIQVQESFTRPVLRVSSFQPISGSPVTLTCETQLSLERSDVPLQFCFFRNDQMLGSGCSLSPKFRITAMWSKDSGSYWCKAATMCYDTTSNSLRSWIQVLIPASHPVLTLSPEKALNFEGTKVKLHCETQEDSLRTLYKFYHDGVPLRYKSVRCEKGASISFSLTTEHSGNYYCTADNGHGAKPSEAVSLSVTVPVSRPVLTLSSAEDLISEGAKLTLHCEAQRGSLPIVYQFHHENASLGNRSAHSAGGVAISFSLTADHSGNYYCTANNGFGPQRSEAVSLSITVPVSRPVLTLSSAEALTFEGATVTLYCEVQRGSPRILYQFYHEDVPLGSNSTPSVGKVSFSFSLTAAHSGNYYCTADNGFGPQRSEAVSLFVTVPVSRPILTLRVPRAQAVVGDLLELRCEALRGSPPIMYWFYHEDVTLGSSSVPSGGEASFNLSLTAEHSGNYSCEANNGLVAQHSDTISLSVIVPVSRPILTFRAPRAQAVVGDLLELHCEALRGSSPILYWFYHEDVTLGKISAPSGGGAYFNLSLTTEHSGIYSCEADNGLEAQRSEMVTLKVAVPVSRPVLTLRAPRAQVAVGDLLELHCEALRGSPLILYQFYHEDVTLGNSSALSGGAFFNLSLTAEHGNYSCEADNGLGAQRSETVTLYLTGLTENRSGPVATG
Kind of assay: BIACORE. (In SPR one partner is held on a chip, and binding of the other changes the refractive index at the surface.)

Assay [3] has the same target. Kind of assay: SPR, human IgG capture, 1:1 model.
Assay [4] has the same target. Kind of assay: BIACORE, hIgG capture, 1:1 model, monovalent.

By Kd is commonly meant the concentration at which binding is half-saturated. Low readings indicate a tighter complex, high ones a looser complex. By koff is commonly meant the rate constant with which the complex falls apart. As a reminder, the kon is a measure of how fast the partners come together.

Positions count from the first letter of the chain named. Names may count otherwise.

B1: hu1G7.v1 heavy chain W52F + light chain of hu1G7.v1.6 (antibody, part only; not given: hu1G7.v1.6 light chain, V domains shown, part only)
VH: EVQLVESGPGLVKPSETLSLTCTVSGFSLTRFGVHWVRQPPGKGLEWLGVIFRGGSTDYNAAFMSRLTISKDNSKNQVSLKLSSVTAADTAVYYCSNHYYGSSDYALDNWGQGTLVTVSS
In turn, B1 returned a Kd in assay [1] of 81 nM.

B2: hu1G7.v1 heavy chain W52H + light chain of hu1G7.v1.6 (antibody, part only; not given: hu1G7.v1.6 light chain, V domains shown, part only)
VH: B1 VH with F52H
The molecule B2 yielded a Kd in assay [1] of 110 nM.

B3: hu1G7.v1 heavy chain M64V + light chain of hu1G7.v1.6 (antibody, part only; not given: hu1G7.v1.6 light chain, V domains shown, part only)
VH: B1 VH with F52W, M64V
Molecule B3 had a Kd in assay [1] of 2.7 nM. Against the preceding molecule, the Kd is about 41-fold lower.

B4: hu1G7.v1 heavy chain W52Y + light chain of hu1G7.v1.6 (antibody, part only; not given: hu1G7.v1.6 light chain, V domains shown, part only)
VH: B1 VH with F52Y
As for B4, the Kd in assay [1] turned out to be 530 nM. Compared with the last molecule, the Kd is about 200-fold higher.

B5: hu1G7.v93/38E4.v1 TDB (bispecific antibody, V domains shown)
VH 1: B1 VH with L29T, F52W, M64V, S103P
VL 1: DIQMTQSPSSLSASVGDRVTITCKASQDVSNLVVWFQQKPGKAPKLLIYSGSYRYSGVPSRFSGSGSGTDFTLTISSLQPEDFATYYCQQHYSPPYTFGQGTKVEIK
VH 2: EVQLVQSGAEVKKPGASVKVSCKASGFTFTSYYIHWVRQAPGQGLEWIGWIYPENDNTKYNEKFKDRVTITADTSTSTAYLELSSLRSEDTAVYYCARDGYSRYYFDYWGQGTLVTVSS
VL 2: DIVMTQSPDSLAVSLGERATINCKSSQSLLNSRTRKNYLAWYQQKPGQSPKLLIYWTSTRKSGVPDRFSGSGSGTDFTLTISSLQAEDVAVYYCKQSFILRTFGQGTKVEIK
For B5, the dissociation constant (Kd) in assay [2] turned out to be 8.1 nM.

B6: hu1G7.v1 heavy chain M64I + light chain of hu1G7.v1.6 (antibody, part only; not given: hu1G7.v1.6 light chain, V domains shown, part only)
VH: B1 VH with F52W, M64I
In assay [1], B6 showed a Kd of 2.7 nM.

B7: hu1G7.v85/38E4.v1 TDB (bispecific antibody, V domains shown)
VH 1: B1 VH with F52W, M64V
VL 1: B5 VL 1 with S30R
VH 2: B5 VH 2
VL 2: B5 VL 2
With B7, the dissociation constant Kd in assay [3] was determined as 6.8 nM; in assay [4] it was 6.76 nM; in assay [2], 7.8 nM. Further, in assay [3], the off-rate (koff) was 0.0008 s⁻¹. Further, in assay [3], the association rate constant (kon) amounted to 100000 M⁻¹ s⁻¹.

B8: hu1G7.v1 heavy chain M64F + light chain of hu1G7.v1.6 (antibody, part only; not given: hu1G7.v1.6 light chain, V domains shown, part only)
VH: B1 VH with F52W, M64F
With B8, the Kd in assay [1] stood at 2.6 nM.

B9: hu1G7.v1 heavy chain W52L + light chain of hu1G7.v1.6 (antibody, part only; not given: hu1G7.v1.6 light chain, V domains shown, part only)
VH: B1 VH with F52L
Regarding B9, in assay [1], the dissociation constant (Kd) came out at 250 nM.

Values taken from patent US20160368985A1.
